Source: patent publication US12459974B2, “Bicyclic peptide ligands specific for Nectin-4” (priority 2018, dated 2025)
Like-named read-outs stand apart in the source and are kept apart here. *1 amine or outer side, *2 acyl side, *3 side chain or, on linkers, in order; H or OH if unused. Where a SMILES comes first, the peptide text is derived from it. Bridges are numbered along the chain shown (N, C = ends). Roman numbers before positions name the chains, in order. [ ]: non-standard residue; d: D form. The star is where a group is joined. TATA = O=C(CC[*:1])N1CN(C(=O)CC[*:2])CN(C(=O)CC[*:3])C1; Dolaproine = CO[C@@H]([C@@H]1CCCN1)[C@@H](C)C(=O)O; Dil = CC[C@H](C)[C@H](NC)[C@@H](CC(=O)O)OC; 1Nal = N[C@@H](Cc1cccc2ccccc12)C(=O)O; X3 = O=C(CCCC(=O)[*:2])NCCC(=O)[*:1]; PABC = O=C(OCc1ccc(N[*:1])cc1)[*:2]; X4 = C[C@@H](N*)[C@@H](O)c1ccccc1; Hyp = O=C(O)[C@@H]1C[C@@H](O)CN1; hArg = N=C(N)NCCCC[C@H](N)C(=O)O; Cit = NC(=O)NCCC[C@H](N)C(=O)O; NMeV = CN[C@H](C(=O)O)C(C)C; βAla = NCCC(=O)O; Sar = CNCC(=O)O

Assays:
MDA-MB-468 xenograft [1] = assay: Example 4: in vivo efficacy in MDA-MB-468 xenograft (breast cancer model) in Balb/c nude mice; parameters: species or system Mus Musculus; conditions: 5 mg/kg
HCT116 xenograft = assay: Example 9.2: in vivo efficacy in HCT116 xenograft in Balb/c nude mice; parameters: species or system Mus Musculus; conditions: 3 mg/kg biw
NCI-H526 xenograft = assay: Example 9.6: in vivo efficacy in NCI-H526 xenograft in Balb/c nude mice
Protocol: (§1) The major endpoint was to see if the tumor growth could be delayed or mice could be cured. Tumor volume was measured three times weekly in two dimensions using a caliper, and the volume was expressed in mm^3 using the formula: V=0.5 a×b^2 where a and b are the long and short diameters of the tumor, respectively. The tumor size was then used for calculations of T/C value. The T/C value (in percent) is an indication of antitumor effectiveness; T and C are the mean volumes of the treated and control groups, respectively, on a given day. TGI was calculated for each group using the formula: TGI (%)=[1−(Ti−T0)/(Vi−V0)]×100; Ti is the average tumor volume of a treatment group on a given day, T0 is the average tumor volume of the treatment group on the day of treatment start, Vi is the average tumor volume of the vehicle control group on the same day with Ti, and V0 is the average tumor volume of the vehicle group on the day of treatment start.
(§2) A one-way ANOVA was performed to compare tumor volume among groups, and when a significant F-statistics (a ratio of treatment variance to the error variance) was obtained, comparisons between groups were carried out with Games-Howell test. All data were analyzed using GraphPad Prism 5.0. P<0.05 was considered to be statistically significant.
• Species: Mus Musculus • Strain: Balb/c nude • Age: 6-8 weeks • Sex: female • Body weight: 18-22 g • Number of animals: 21 mice plus spare 3.1.2.
The NCI-H526 cells were maintained in medium supplemented with 10% heat inactivated fetal bovine serum at 37° C. in an atmosphere of 5% CO2 in air. The tumor cells were routinely subcultured twice weekly. The cells growing in an exponential growth phase were harvested and counted for tumor inoculation.
Each mouse was inoculated subcutaneously at the right flank with NCI-H526 tumor cells (5.0×10^6 in 0.2 ml of PBS for tumor development. 21 animals were randomized when the average tumor volume reached 181 mm^3. The test article administration and the animal numbers in each group were shown in the experimental design table.
Tumor growth inhibition rate for test articles in the NCI-H526 xenograft model was calculated based on tumor volume measurements at day 14 after the start of the treatment.

MDA-MB-468 xenograft [2] = assay: Example 9.4: in vivo efficacy in MDA-MB-468 xenograft in Balb/c nude mice; conditions: 5 mg/kg
Protocol: as §1, §2
• Species: Mus Musculus • Strain: Balb/c nude • Age: 6-8 weeks • Sex: female • Body weight: 18-22 g • Number of animals: 41 mice plus spare 3.1.2.
The tumor cells were maintained in Leibovitz's L-15 medium supplemented with 10% heat inactivated fetal bovine serum at 37° C. in an atmosphere of 5% CO2 in air. The tumor cells were routinely subcultured twice weekly. The cells growing in an exponential growth phase were harvested and counted for tumor inoculation.
41 animals were randomized when the average tumor volume reached 196 mm^3.

HT-1376 xenograft = assay: Example 2: in vivo efficacy in HT-1376 xenograft (bladder cancer model) in CB17-SCID mice; conditions: 3 mg/kg
Protocol: as §1
A one-way ANOVA was performed to compare tumor volume among groups, and when a significant F-statistics (a ratio of treatment variance to the error variance) was obtained, comparisons between groups were carried out with Games-Howell test. […] P<0.05 was considered to be statistically significant.
• Species: Mus Musculus • Strain: CB17-SCID • Age: 6-8 weeks • Sex: female • Body weight: 18-22 g • Number of animals: 21-41 mice plus spare • Animal supplier: Shanghai LC Laboratory Animal Co., LTD.
The HT-1376 tumor cells were maintained in vitro as a monolayer culture in EMEM medium supplemented with 10% heat inactivated fetal bovine serum at 37° C. in an atmosphere of 5% CO2 in air. The tumor cells were routinely subcultured twice weekly by trypsin-EDTA treatment.
Each mouse was inoculated subcutaneously at the right flank with HT-1376 tumor cells (5×10^6) in 0.2 ml of PBS with matrigel (1:1) for tumor development. Animals were randomized when the average tumor volume reached 153-164 mm^3.
Tumor growth inhibition rate for Test articles in the HT-1376 xenograft model was calculated based on tumor volume measurements at day 21 after the start of treatment.

NCI-H292 xenograft = assay: Example 1: in vivo efficacy in NCI-H292 xenograft (NSCLC model) in BALB/c nude mice; parameters: species or system Mus Musculus; conditions: 5 mg/kg
Protocol: as §1, §2
The NCI-H292 tumor cells will be maintained in medium supplemented with 10% heat inactivated fetal bovine serum at 37° C. in an atmosphere of 5% CO2 in air. The tumor cells will be routinely subcultured twice weekly. The cells growing in an exponential growth phase will be harvested and counted for tumor inoculation.
Each mouse will be inoculated subcutaneously at the right flank with NCI-H292 tumor cells (10×10^6) in 0.2 ml of PBS for tumor development. The animals will be randomized and treatment will be started when the average tumor volume reaches approximately 158-406 mm^3.

human Nectin-4 = biological target: T1, human Nectin-4 (Homo sapiens, UniProt Q96NY8); assay: Nectin-4 competition binding assay (fluorescence polarisation)
T1 sequence (Q96NY8 32-510): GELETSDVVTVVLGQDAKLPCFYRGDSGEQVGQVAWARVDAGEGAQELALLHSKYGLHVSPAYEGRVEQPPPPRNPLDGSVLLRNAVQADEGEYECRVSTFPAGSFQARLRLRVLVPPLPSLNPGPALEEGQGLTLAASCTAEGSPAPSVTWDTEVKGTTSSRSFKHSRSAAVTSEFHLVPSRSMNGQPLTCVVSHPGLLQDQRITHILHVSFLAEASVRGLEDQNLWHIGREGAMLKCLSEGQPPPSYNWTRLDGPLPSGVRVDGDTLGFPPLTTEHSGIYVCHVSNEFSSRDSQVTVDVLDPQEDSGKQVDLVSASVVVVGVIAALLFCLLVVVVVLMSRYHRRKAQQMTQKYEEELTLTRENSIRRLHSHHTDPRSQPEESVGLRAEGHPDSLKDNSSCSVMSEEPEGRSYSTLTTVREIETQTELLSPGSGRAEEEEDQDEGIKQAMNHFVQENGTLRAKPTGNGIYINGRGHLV
Procedure, shortened: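 Serially diluted (1 in 2) peptides, max 5% DMSO, were mixed with human Nectin-4 and a fluorescent tracer peptide; FP read as in the direct binding assay. Ki from fitting mP values to a cubic competition equation using tracer concentration, tracer Kd and Nectin-4 concentration.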

[3] = competition with fluorescent peptide SEQ ID NO: 217, read-out: Ki

SMILES: CC[C@H](C)[C@@H]([C@@H](CC(=O)N1CCC[C@H]1[C@H](OC)[C@@H](C)C(=O)N[C@H](C)[C@@H](O)c1ccccc1)OC)N(C)C(=O)[C@@H](NC(=O)[C@H](C(C)C)N(C)C(=O)OCc1ccc(NC(=O)[C@H](CCCNC(N)=O)NC(=O)[C@@H](NC(=O)CCCC(=O)NCCC(=O)N(C)CC(=O)N(C)CC(=O)N(C)CC(=O)N(C)CC(=O)N(C)CC(=O)N(C)CC(=O)N(C)CC(=O)N(C)CC(=O)N(C)CC(=O)N(C)CC(=O)N[C@H]2CSCCC(=O)N3CN4CN(C3)C(=O)CCSC[C@H](NC(=O)[C@@H](CCCNC(=N)N)NC(=O)[C@H](Cc3cccc5ccccc35)NC(=O)[C@@H]3CCCN3C2=O)C(=O)N[C@@H](CCSC)C(=O)N[C@@H](CCCCNC(=N)N)C(=O)N[C@@H](CC(=O)O)C(=O)N[C@@H](Cc2c[nH]c3ccccc23)C(=O)N[C@@H](CO)C(=O)N[C@@H]([C@@H](C)O)C(=O)N2CCC[C@H]2C(=O)N2C[C@H](O)C[C@H]2C(=O)N[C@@H](Cc2c[nH]c3ccccc23)C(=O)N[C@H](C(N)=O)CSCCC4=O)C(C)C)cc1)C(C)C [BCY8255, MMAE-PABC-Cit-Val-Glutaryl-BCY8235] (I: [Sar][Sar][Sar][Sar][Sar][Sar][Sar][Sar][Sar][Sar]CP[1Nal][dR]CM[hArg]DWSTP[Hyp]WC-NH2 / II: V[Cit][PABC][NMeV]V[Dil][Dolaproine]-X4; linker I:11-I:15-I:25 via TATA; linker I:N-II:N via X3)
- animal body weight (in words) (MDA-MB-468 xenograft [1]): severe animal body weight loss
- bodyweight loss (HCT116 xenograft): 15%
- animal bodyweight loss (NCI-H526 xenograft; 3 mg/kg biw): over 15%
- animal bodyweight loss (NCI-H526 xenograft; 5 mg/kg qw): over 15%
- animal body weight (in words) (MDA-MB-468 xenograft [2]): severe animal body weight loss
- death (HT-1376 xenograft): found dead on day 16

SMILES: CC[C@H](C)[C@@H]([C@@H](CC(=O)N1CCC[C@H]1[C@H](OC)[C@@H](C)C(=O)N[C@H](C)[C@@H](O)c1ccccc1)OC)N(C)C(=O)[C@@H](NC(=O)[C@H](C(C)C)N(C)C(=O)OCc1ccc(NC(=O)[C@H](CCCNC(N)=O)NC(=O)[C@@H](NC(=O)CCCC(=O)NCCC(=O)N(C)CC(=O)N(C)CC(=O)N(C)CC(=O)N(C)CC(=O)N(C)CC(=O)N[C@H]2CSCCC(=O)N3CN4CN(C3)C(=O)CCSC[C@H](NC(=O)[C@@H](CC(=O)O)NC(=O)[C@H](Cc3ccccc3)NC(=O)[C@@H]3CCCN3C2=O)C(=O)N[C@@H](CCSC)C(=O)N[C@@H](CCCCNC(=N)N)C(=O)N[C@@H](CC(N)=O)C(=O)N[C@@H](Cc2c[nH]c3ccccc23)C(=O)N[C@@H](CO)C(=O)N[C@@H](Cc2c[nH]c3ccccc23)C(=O)N2CCC[C@H]2C(=O)N[C@@H]([C@@H](C)CC)C(=O)N[C@@H](Cc2c[nH]c3ccccc23)C(=O)N[C@H](C(N)=O)CSCCC4=O)C(C)C)cc1)C(C)C [BCY7683, MMAE-PABC-Cit-Val-Glutaryl-BCY7556] (I: [Sar][Sar][Sar][Sar][Sar]CPF[dD]CM[hArg]NWSWPIWC-NH2 / II: V[Cit][PABC][NMeV]V[Dil][Dolaproine]-X4; linker I:6-I:10-I:20 via TATA; linker I:N-II:N via X3)
- bodyweight (in words) (NCI-H292 xenograft): severe bodyweight loss

SMILES: CC[C@H](C)[C@@H]1NC(=O)[C@@H]2CCCN2C(=O)[C@H](Cc2c[nH]c3ccccc23)NC(=O)[C@H](CO)NC(=O)[C@H](Cc2c[nH]c3ccccc23)NC(=O)[C@H]([C@@H](C)O)NC(=O)[C@H](CCC(=O)O)NC(=O)[C@H](CCSC)NC(=O)[C@@H]2CSCCC(=O)N3CN(CN(C3)C(=O)CCSC[C@H](NC(=O)[C@H](C)NC(=O)[C@H](CC(=O)O)NC(=O)[C@@H](N)CC(=O)O)C(=O)N3CCC[C@H]3C(=O)N[C@@H](Cc3ccccc3)C(=O)NCC(=O)N2)C(=O)CCSC[C@@H](C(=O)N[C@@H](C)C(N)=O)NC(=O)[C@H](Cc2c[nH]c3ccccc23)NC1=O [BCY3386, DDA-(SEQ ID NO: 45)-A] (H-DDACPFGCMETWSWPIWCA-NH2; linker 4-8-18 via TATA; N-terminus and C-terminus assumed)
- Ki (human Nectin-4; [3]): 0.0802 µM

SMILES: CC[C@H](C)[C@@H]1NC(=O)[C@@H]2CCCN2C(=O)[C@H](Cc2c[nH]c3ccccc23)NC(=O)[C@H](CO)NC(=O)[C@H](Cc2c[nH]c3ccccc23)NC(=O)[C@H](Cc2c[nH]cn2)NC(=O)[C@H](CCCCN)NC(=O)[C@H](CCSC)NC(=O)[C@@H]2CSCCC(=O)N3CN(CN(C3)C(=O)CCSC[C@H](NC(C)=O)C(=O)N3CCC[C@H]3C(=O)N[C@@H](Cc3ccccc3)C(=O)NCC(=O)N2)C(=O)CCSC[C@@H](C(N)=O)NC(=O)[C@H](Cc2c[nH]c3ccccc23)NC1=O [BCY7662, Ac-(SEQ ID NO: 16)] (Ac-CPFGCMKHWSWPIWC-NH2; linker 1-5-15 via TATA; C-terminus assumed)
- Ki (human Nectin-4; [3]): 0.0148 µM

SMILES: CSCC[C@@H]1NC(=O)[C@@H]2CSCCC(=O)N3CN(CN(C3)C(=O)CCSC[C@H](NC(C)=O)C(=O)N3CCC[C@H]3C(=O)N[C@@H](Cc3cccc4ccccc34)C(=O)N[C@H](CCCNC(=N)N)C(=O)N2)C(=O)CCSC[C@@H](C(N)=O)NC(=O)[C@H](Cc2c[nH]c3ccccc23)NC(=O)[C@@H]2C[C@@H](O)CN2C(=O)[C@@H]2CCCN2C(=O)[C@H](CO)NC(=O)[C@H](CO)NC(=O)[C@H](Cc2c[nH]c3ccccc23)NC(=O)[C@H](CC(=O)O)NC(=O)[C@H](CCCCNC(=N)N)NC1=O [BCY8191, Ac-(SEQ ID NO: 195)] (Ac-CP[1Nal][dR]CM[hArg]DWSSP[Hyp]WC-NH2; linker 1-5-15 via TATA; C-terminus assumed)
- Ki (human Nectin-4; [3]): 0.0045 µM

SMILES: CC[C@H](C)[C@@H]1NC(=O)[C@@H]2CCCN2C(=O)[C@H](Cc2c[nH]c3ccccc23)NC(=O)[C@H](CO)NC(=O)[C@H](Cc2c[nH]c3ccccc23)NC(=O)[C@H](CC(N)=O)NC(=O)[C@H](CCCCNC(=N)N)NC(=O)[C@H](CCSC)NC(=O)[C@@H]2CSCCC(=O)N3CN(CN(C3)C(=O)CCSC[C@H](NC(=O)CN(C)C(=O)CN(C)C(=O)CN(C)C(=O)CN(C)C(=O)CN(C)C(=O)CCNC(C)=O)C(=O)N3CCC[C@H]3C(=O)N[C@@H](Cc3ccccc3)C(=O)N[C@H](CC(=O)O)C(=O)N2)C(=O)CCSC[C@@H](C(N)=O)NC(=O)[C@H](Cc2c[nH]c3ccccc23)NC1=O [BCY7558, Ac-[B-Ala][Sar5]-(SEQ ID NO: 76)] (Ac-[βAla][Sar][Sar][Sar][Sar][Sar]CPF[dD]CM[hArg]NWSWPIWC-NH2; linker 7-11-21 via TATA)
- Ki (human Nectin-4; [3]): 0.0219 µM

SMILES: CC[C@H](C)[C@@H]1NC(=O)[C@@H]2CCCN2C(=O)[C@H](Cc2c[nH]c3ccccc23)NC(=O)[C@H](CO)NC(=O)[C@H](Cc2c[nH]c3ccccc23)NC(=O)CNC(=O)[C@H](CCCNC(=N)N)NC(=O)[C@H](CCSC)NC(=O)[C@@H]2CSCCC(=O)N3CN(CN(C3)C(=O)CCSC[C@H](NC(=O)[C@H](C)NC(=O)[C@@H](NC(=O)[C@@H](N)CC(=O)O)[C@@H](C)O)C(=O)N3CCC[C@H]3C(=O)N[C@@H](Cc3ccccc3)C(=O)NCC(=O)N2)C(=O)CCSC[C@@H](C(=O)N[C@@H](C)C(N)=O)NC(=O)[C@H](Cc2c[nH]c3ccccc23)NC1=O [BCY3388, DTA-(SEQ ID NO: 46)-A] (H-DTACPFGCMRGWSWPIWCA-NH2; linker 4-8-18 via TATA)
- Ki (human Nectin-4): 0.129 µM

SMILES: CC[C@H](C)[C@@H]1NC(=O)[C@@H]2CCCN2C(=O)[C@H](Cc2c[nH]c3ccccc23)NC(=O)[C@H](CO)NC(=O)[C@H](Cc2c[nH]c3ccccc23)NC(=O)[C@H](CC(=O)O)NC(=O)[C@H](CO)NC(=O)[C@H](CCSC)NC(=O)[C@@H]2CSCCC(=O)N3CN(CN(C3)C(=O)CCSC[C@H](NC(=O)[C@H](C)N)C(=O)N3CCC[C@H]3C(=O)N[C@@H](Cc3ccccc3)C(=O)NCC(=O)N2)C(=O)CCSC[C@@H](C(=O)N[C@@H](CO)C(=O)N[C@H](C(=O)N[C@@H](CC(=O)O)C(N)=O)[C@@H](C)O)NC(=O)[C@H](Cc2c[nH]c3ccccc23)NC1=O [BCY3399, A-(SEQ ID NO: 57)-STD] (H-ACPFGCMSDWSWPIWCSTD-NH2; linker 2-6-16 via TATA; N-terminus and C-terminus assumed)
- Ki (human Nectin-4; [3]): 0.41 µM

SMILES: CC[C@H](C)[C@@H]1NC(=O)[C@@H]2CCCN2C(=O)[C@H](Cc2c[nH]c3ccccc23)NC(=O)[C@H](CO)NC(=O)[C@H](Cc2c[nH]c3ccccc23)NC(=O)[C@H](CC(N)=O)NC(=O)[C@H](CCCCN)NC(=O)[C@H](CCSC)NC(=O)[C@@H]2CSCCC(=O)N3CN(CN(C3)C(=O)CCSC[C@H](NC(C)=O)C(=O)NCC(=O)N[C@@H](Cc3ccccc3)C(=O)NCC(=O)N2)C(=O)CCSC[C@@H](C(N)=O)NC(=O)[C@H](Cc2c[nH]c3ccccc23)NC1=O [BCY7607, Ac-(SEQ ID NO: 94)] (Ac-CGFGCMKNWSWPIWC-NH2; linker 1-5-15 via TATA)
- Ki (human Nectin-4; [3]): 0.077 µM
